This sample holds only a part of the variants without activity.
B1: TPR 5TU (parent)
chain: GGAUCUUCUCGAUCUAACAAAAAAGACAAAUCUGCCACAAAGCUUGAGAGCAUCUUCGGAUGCAGAGGCGGCAGCCUUCGGUGGCGCGAUAGCGCCAACGUUCUCAACUAUGACACGCAAAACGCGUGCUCCGUUGAAUGGAGUUUAUCAUG

Variants of: B1
Assay: polymerase ribozyme fitness, log enrichment relative to wild type (log ratio); higher = more active; in vitro selection for triplet polymerase activity
Outline: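 One round of in vitro selection, in triplicate, was applied to PCR-built, transcribed mutant libraries of each subunit of a heterodimeric triplet polymerase ribozyme. The steps were annealing with a biotinylated primer, partner subunit and triplets, incubation frozen at −7 °C, gel excision of extended constructs, streptavidin-bead capture and RT-PCR. Fitness is the logarithm, base 2, of genotype enrichment over wild-type enrichment from inverse-variance-weighted replicate averages of Illumina-sequenced inputs and outputs, keeping genotypes with ≥10 input reads and ≥1 read per output.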

Row | Variant | polymerase ribozyme fitness (log ratio)
1 | A52G U82C G92U C93U G126A | -1.76
2 | C51U A60G C85A | -3.39
3 | A52G U144A | -0.831
4 | C51U C75U C96U G143C | -4.11
5 | A52C C85A | -3.22
6 | A52G C57A G94U G117U A121C C131G | ≤ -4.2
7 | C51U G88C | -4.09
8 | A52G G84A G136A | -0.512
9 | A52G G62A C85U | -1.4
10 | A52C U55G | -3.84
11 | A52C U111C A121C C123A U145A A150G | -3.02
12 | A52C C72U C96A C123U | -2.72
13 | A52G C108U | -2.1
14 | A52C A60C C79U C93A G152U | ≤ -4.2
15 | A52G G81A | -0.481
16 | A52C G59A G68A C79U G92U U104G | ≤ -4.2
17 | A52C G94A | -0.384
18 | A52C C85U A147G | -3.76
19 | A52C A73G | -1.89
20 | A52C A73U | -3.14
21 | A52G G81A G83A A98U | -1.22
22 | A52G U56G G83A | -2.85
23 | A52G A66U A91U | ≤ -4.2
24 | A52G A137C | -3.28

Row | Variant | polymerase ribozyme fitness (log ratio)
25 | A52C A73G C85A | -3.88
26 | A52C G83U | -2.01
27 | C51U G58U U77G C96A | -4.18
28 | A52G G58C C79U A98U U101G C108A | ≤ -4.2
29 | A52C C57U G81C | -1.59
30 | A52U A66G C87G A97G | ≤ -4.2
31 | C51G C79A | ≤ -4.2
32 | A52G A64U G81A G86C G92A A122C G143C | ≤ -4.2
33 | C51U U61A G86C | -4.06
34 | A52G U104A A122G U139G | -1.23
35 | A52C C54A | ≤ -4.2
36 | A52G G58C G68A C76A C85U U90G G117U | ≤ -4.2
37 | A52G G71U | -2.58
38 | A52C U55A G59U | 0.0736
39 | A52C G92U C103G A106C | ≤ -4.2
40 | A52C G58A A147U | -0.233
41 | A52G C105A C123A G133U U144G | ≤ -4.2
42 | A52C G58C A91U A121U | ≤ -4.2
43 | A52C U90G | ≤ -4.2
44 | A52C C54U G68A C93U C103A A106G A110U | ≤ -4.2
45 | A52G C63U C93U U145G C149U | -4.11
46 | A52G C76U C93G | -2.91
47 | C51U A98U U135C U144A | -3.82
48 | C51U G58A | -1.32

Row | Variant | polymerase ribozyme fitness (log ratio)
49 | C51G C57U G67C C87G A91G | ≤ -4.2
50 | A52G C63U C93U | -1.7
51 | A52C G86C | -4.07
52 | A52C G86A | -1.2
53 | C51U G86U | -1.45
54 | C51U G86A | -2.13
55 | C51G U56G C93U | -3.95
56 | A52G G74C C96U U144G | ≤ -4.2
57 | A52G A60U C85A G94U C96G | -3.93
58 | C51G G58C | -1.42
59 | C51U C96U | -0.419
60 | C51U U134A | -2.32
61 | C51G U56A A97U C123U | -3
62 | A52C U55A C85G C116A | -3.78
63 | C51U G59C C72A | ≤ -4.2
64 | C51U U56A C87A C95U C118A U139C | ≤ -4.2
65 | A52C A64G C85U U145G | ≤ -4.2
66 | A52G C69A | -3.71
67 | A52G U135G U139C A147C | ≤ -4.2
68 | C51U C96A C105A C118U | -2.94
69 | A52G A73G C99U G117A | -1.7
70 | C51G C96A A147C | -3.82
71 | A52C C103A A147C | ≤ -4.2
72 | C51U U53G A119U G143C | ≤ -4.2

Row | Variant | polymerase ribozyme fitness (log ratio)
73 | C51U C99U | -0.392
74 | A52G G84A C118U C123G | -1.29
75 | C51U U56A C57A C105G A122G | -2.19
76 | C51U U53A G65U G84U C93A C116G U135G | ≤ -4.2
77 | C51U C76U C96U A137U U144C U151A | ≤ -4.2
78 | C51U C75U G88A C93U G94A G136C | ≤ -4.2
79 | A52G U56G C85A C131U A137G | -3.95
80 | C51U C54U C85A A98U | -2.81
81 | A52C U56C C57A G67A C85U A97U U146G U151G | ≤ -4.2
82 | C51U C69G C118G A142C C149G | ≤ -4.2
83 | C51U G92U C99A A106G C123G C129U | -2.74
84 | A52G G70C U78G C93G G141C | ≤ -4.2
85 | A52G G88A C118A C123U G141C | ≤ -4.2
86 | A52G G86U C96G U144C U151C | ≤ -4.2
87 | A52G C93U G94C A97C | -3.73
88 | C51U C96U G124A | -0.0401
89 | A52G C57A G92U | -0.753
90 | C51U C85U G140C | ≤ -4.2
91 | A52C G58A C93A C118U | -3.55
92 | A52C C75U A97U U109G C114A | -3.53
93 | C51U C108U | -3.72
94 | A52C G84U C96U U144A | ≤ -4.2
95 | A52C A97U | -1.59
96 | C51U A89G C99U A150G | -3.67

Row | Variant | polymerase ribozyme fitness (log ratio)
97 | C51U G88U U90C G94A C95U A147G | ≤ -4.2
98 | A52G G58C C99U | -0.284
99 | C51U A64C C79A C85U A142G | ≤ -4.2
100 | C51G U56A G117U | -2.86
101 | A52G G58U A66G G70U G92A G100A C116A U148A | ≤ -4.2
102 | C51U C54G C85U U101G A137G U144G | ≤ -4.2
103 | A52C U53A G88C C95U U145C | ≤ -4.2
104 | C51G G84A C95G A119G | -2.85
105 | A52G C93G G141C | -3.74
106 | A52G G94C | -1.32
107 | A52G A60C | -1.96
108 | A52G A150G | -2.55
109 | C51U A52U G74C A113C C131A | ≤ -4.2
110 | C51U G141C | -0.423
111 | A52G A106G | -0.771
112 | A52G C79U G92A C116G | ≤ -4.2
113 | C51G C125U G141U | -3.54
114 | A52G U55A A91C A97U G112A A150U | ≤ -4.2
115 | A52C G67C G83U C108U G124U | ≤ -4.2
116 | A52G G100U A106U | ≤ -4.2
117 | C51G U53C G67C G86U U101G A138U | ≤ -4.2
118 | A52G C96U U101A A142U A150G | ≤ -4.2
119 | A52C C87U | -0.789
120 | A52G C93U C96U G136C A138G U146A | ≤ -4.2

Row | Variant | polymerase ribozyme fitness (log ratio)
121 | A52C A98G C132G | ≤ -4.2
122 | C51U G92C U135C | -3.1
123 | A52G G84U U144G | -1.56
124 | C51U U56A G71C G84A G140A A142U | ≤ -4.2
125 | A52G C93G C96U U104C A150G | ≤ -4.2
126 | A52C G88A U146G A150C | ≤ -4.2
127 | A52G C57A G83U A91G C95A | -4.15
128 | A52C C96U A119U U130G | ≤ -4.2
129 | A52G U101G | -0.16
130 | C51U A91G G100A A110U A121U | ≤ -4.2
131 | C51U G94A C118U | -1.44
132 | A52G G71U C96U | -4.1
133 | A52C G92U G152U | -3.32
134 | A52G C76U C85G C123A U144G | -0.879
135 | A52G C87U G141A U148A | ≤ -4.2
136 | A52G A107U | -3.56
137 | A52G A107C | -3.09
138 | A52C U55A G74U G88U G92U C105G A107G | ≤ -4.2
139 | A52C G143C | -3.51
140 | A52G G68U C99G | ≤ -4.2
141 | A52C G84A C116G A120U | -1.12
142 | A52U A73C G83C G84A G92U C123G | ≤ -4.2
143 | A52G U55A C87G | ≤ -4.2
144 | C51G G62C C85A G143A | -1.5

Row | Variant | polymerase ribozyme fitness (log ratio)
145 | A52C C57U C85U U135A | -1.62
146 | C51G C85U | -1.91
147 | A52G A73G C85U | -0.163
148 | C51U C95G | -1.68
149 | C51U C95U | -1.69
150 | C51U A52G C87U A137C | ≤ -4.2
151 | A52G U90A A142G | ≤ -4.2
152 | A52G A73G | -0.266
153 | C51U C85A | -2.63
154 | C51U C85G | -2.53
155 | C51U U53A U61A A97C G140A G143A | ≤ -4.2
156 | A52C G62C A120G G140U | -4.1
157 | C51U C95G A110U G141U | ≤ -4.2
158 | C51G G84U | -3.11
159 | A52G U61G A73G | -2.84
160 | A52C U55A U82C | -2.36
161 | A52C U55A A66C C79G G133U A137G | ≤ -4.2
162 | C51U C95G C105U U145A | -1.72
163 | A52C G58U G65U C69A G80C C103A C108G | ≤ -4.2
164 | A52C G84A | -1.32
165 | A52C G84U | -2.64
166 | A52C C85U U102C | -2.57
167 | C51U G81C C85U G117C U134A A137G | -3.98

From the RNAGym collection of RNA variant scans (doi:10.1073/pnas.2313332121)
